Assay results taken from article PMC8980629, “c-Abl kinase-mediated phosphorylation of γ-tubulin promotes γ-tubulin ring complexes assembly and microtubule nucleation” (The Journal of Biological Chemistry, 2022).

Target: T1, Flag-γ-tubulin (human, UniProt P23258 1-451)
T1 construct: γ-tubulin (tubg1), full-length cDNA amplified from an MCF-7 cDNA library, in a pcDNA3.0-based vector; also called wild-type Flag-γ-tubulin; source: HEK293T, transfected, in lysate; anti-Flag immunoprecipitated and resolved by SDS-PAGE for the far-Western; not shown: Flag, N-terminal, kept
Experiment: far-Western, overlay or dot blot; anti-Flag immunoprecipitates from HEK293T resolved by SDS-PAGE and blotted onto PVDF; membrane incubated with purified GST or GST fusion protein 2 h at room temperature; probed with anti-GST
Settings: both partners purified

T1 sequence (P23258 whole entry): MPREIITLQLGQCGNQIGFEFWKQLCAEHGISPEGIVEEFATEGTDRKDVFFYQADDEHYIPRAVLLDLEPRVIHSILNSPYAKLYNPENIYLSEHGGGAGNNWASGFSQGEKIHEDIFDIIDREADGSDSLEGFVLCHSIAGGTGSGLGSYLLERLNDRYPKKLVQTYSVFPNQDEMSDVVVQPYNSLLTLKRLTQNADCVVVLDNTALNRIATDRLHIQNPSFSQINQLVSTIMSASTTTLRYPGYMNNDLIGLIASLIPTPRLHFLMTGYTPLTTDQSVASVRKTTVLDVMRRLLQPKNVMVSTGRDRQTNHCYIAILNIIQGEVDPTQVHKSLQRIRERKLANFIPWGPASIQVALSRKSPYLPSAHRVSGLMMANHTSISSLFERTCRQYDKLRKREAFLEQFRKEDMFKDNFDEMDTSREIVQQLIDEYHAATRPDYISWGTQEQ

binding result: binds
B1: GST-c-Abl SH2 (domain or fragment, UniProt P00519 127-217, looked up)
chain: WYHGPVSRNAAEYLLSSGINGSFLVRESESSPGQRSISLRYEGRVYHYRINTASDGKLYVSSESRFNTLAELVHHHSTVADGLITTLHYPA
notes: SH2 domain of c-Abl; source: purified GST fusion protein; not shown: GST, N-terminal, kept
